In paper PMC2774623 (Biochemistry, 2008):
Like-named read-outs stand apart in the source and are kept apart here.

B1: ΔF508 mutated recombinant murine NBD1 (spanning sequence 389−673) (domain or fragment, mouse, UniProt P26361 389-673, looked up)
chain: TTGIIMENVTAFWEEGFGELLEKVQQSNGDRKHSSDENNVSFSHLCLVGNPVLKNINLNIEKGEMLAITGSTGSGKTSLLMLILGELEASEGIIKHSGRVSFCSQFSWIMPGTIKENIIGVSYDEYRYKSVVKACQLQQDITKFAEQDNTVLGEGGVTLSGGQRARISLARAVYKDADLYLLDSPFGYLDVFTEEQVFESCVCKLMANKTRILVTSKMEHLRKADKILILHQGSSYFYGTFSELQSLRPDFSSKLMGYDTFDQFTEERRSSILTETLRRFSVDD
B2: wild-type recombinant murine NBD1 (nucleotide binding domain 1 of CFTR, spanning sequence 389−673) (domain or fragment, mouse, UniProt P26361 389-673, looked up)
chain: TTGIIMENVTAFWEEGFGELLEKVQQSNGDRKHSSDENNVSFSHLCLVGNPVLKNINLNIEKGEMLAITGSTGSGKTSLLMLILGELEASEGIIKHSGRVSFCSQFSWIMPGTIKENIIFGVSYDEYRYKSVVKACQLQQDITKFAEQDNTVLGEGGVTLSGGQRARISLARAVYKDADLYLLDSPFGYLDVFTEEQVFESCVCKLMANKTRILVTSKMEHLRKADKILILHQGSSYFYGTFSELQSLRPDFSSKLMGYDTFDQFTEERRSSILTETLRRFSVDD
B3: wild-type human NBD1 (spanning sequence 389−673) (domain or fragment, UniProt P13569 389-673, looked up)
chain: TTEVVMENVTAFWEEGFGELFEKAKQNNNNRKTSNGDDSLFFSNFSLLGTPVLKDINFKIERGQLLAVAGSTGAGKTSLLMVIMGELEPSEGKIKHSGRISFCSQFSWIMPGTIKENIIFGVSYDEYRYRSVIKACQLEEDISKFAEKDNIVLGEGGITLSGGQRARISLARAVYKDADLYLLDSPFGYLDVLTEKEIFESCVCKLMANKTRILVTSKMEHLKKADKILILHEGSSYFYGTFSELQNLQPDFSSKLMGCDSFDQFSAERRNSILTETLHRFSLEG
B4: recombinant β-subunit of human protein kinase CK2 (natural protein)
chain: not shown

How the values were obtained:
Experiment in all cases: SPR
[1] = biological target: T1, recombinant α-subunit of human protein kinase CK2 (human, UniProt P68400 1-391)
T1 sequence (P68400 whole entry): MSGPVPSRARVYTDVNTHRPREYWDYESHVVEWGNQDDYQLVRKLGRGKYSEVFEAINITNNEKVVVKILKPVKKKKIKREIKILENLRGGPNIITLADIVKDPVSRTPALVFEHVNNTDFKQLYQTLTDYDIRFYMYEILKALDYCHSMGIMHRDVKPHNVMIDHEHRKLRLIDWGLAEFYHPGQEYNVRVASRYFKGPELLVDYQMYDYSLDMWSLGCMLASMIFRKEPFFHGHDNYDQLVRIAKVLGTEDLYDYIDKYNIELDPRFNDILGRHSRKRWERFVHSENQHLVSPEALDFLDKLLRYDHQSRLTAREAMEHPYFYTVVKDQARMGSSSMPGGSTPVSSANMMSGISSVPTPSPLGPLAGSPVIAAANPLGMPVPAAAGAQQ

[2] = biological target: T1, recombinant α-subunit of human protein …; remark: listed apart in the source
[3] = biological target: B3
[4] = biological target: B2
[5] = biological target: B1
[6] = biological target: T1, recombinant α-subunit of human protein …; remark: listed apart in the source

Kd [1] [nM]	koff [1] [s⁻¹]	kon [1] [M⁻¹ s⁻¹]	binding result [6]	Binder	also measured
91.2	8.77e-05	961		B1	
2470	0.000335	135		B2	
				B3	binding result [2]: binds
			binds	B4	binding result [3]: binds; binding result [4]: binds; binding result [5]: binds
			binds	IIGVSYDEYRYR (peptide, UniProt P13569 506-518, looked up) [CFTR peptide 506−518 ΔF]	
